The target in the data set is pSTAT3 (tyrosine-phosphorylated STAT3) (UniProt P40763). As to the kind of experiment: SPR. The following applies: PS x3 at 5' end of sense and 3' end of antisense; strands linked at one end by C-18 (18-atom hexa-ethyleneglycol) spacers; Langmuir 1:1, 4 C, 20 mM HEPES pH 7.0, 200 mM NaCl, 10 mM MgCl2.
Sequence of pSTAT3 (tyrosine-phosphorylated STAT3) (P40763 whole entry): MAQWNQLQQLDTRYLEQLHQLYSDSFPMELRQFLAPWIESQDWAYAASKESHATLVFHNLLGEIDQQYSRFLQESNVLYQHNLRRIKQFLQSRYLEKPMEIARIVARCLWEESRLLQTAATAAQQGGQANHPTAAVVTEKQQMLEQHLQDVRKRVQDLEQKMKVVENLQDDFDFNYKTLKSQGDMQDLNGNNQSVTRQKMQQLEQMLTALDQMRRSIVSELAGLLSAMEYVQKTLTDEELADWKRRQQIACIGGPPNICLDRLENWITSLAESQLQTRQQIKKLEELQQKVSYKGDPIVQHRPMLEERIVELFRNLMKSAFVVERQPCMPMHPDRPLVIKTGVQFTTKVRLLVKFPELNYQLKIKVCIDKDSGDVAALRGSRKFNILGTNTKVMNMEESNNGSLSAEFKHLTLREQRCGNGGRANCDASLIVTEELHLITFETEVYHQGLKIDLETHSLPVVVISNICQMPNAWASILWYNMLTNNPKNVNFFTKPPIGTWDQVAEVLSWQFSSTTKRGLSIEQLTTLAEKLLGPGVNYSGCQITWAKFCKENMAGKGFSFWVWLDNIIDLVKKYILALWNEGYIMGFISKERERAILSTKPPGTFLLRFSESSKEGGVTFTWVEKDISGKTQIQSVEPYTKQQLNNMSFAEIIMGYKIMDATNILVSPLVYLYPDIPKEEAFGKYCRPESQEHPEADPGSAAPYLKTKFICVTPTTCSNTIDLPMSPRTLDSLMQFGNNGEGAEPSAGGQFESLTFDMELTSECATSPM

A word on the Kd: it is the equilibrium constant for the complex coming apart. Regarding CATTTCCCGTAAATC (double strand) [DS18], the Kd came to 142 nM.

The values are drawn from patent US20120288536.
